Data as given in publication PMC7647994 (2020).
Where two headings read alike, the source gives them in different places. Values belong to the molecule of their own block, whether it stands above or below them.

Assays:
[1] = target: H10-tagged zinc-binding domain of human CLPX (human); assay: SEC; Superose 12; H10PDIP38, ZBD, or both together; elution profiles from quantified protein bands
[2] = target: H10-tagged zinc-binding domain of human CLPX (human); assay: pull-down; series of pull-down experiments to estimate the affinity of PDIP38 for the ZBD (Supplementary Fig. 3)
[3] = target: T1, H10-tagged zinc-binding domain of human CLPX (human)
T1 chain: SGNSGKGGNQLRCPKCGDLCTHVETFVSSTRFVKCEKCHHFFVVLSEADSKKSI

- stoichiometry N [1]: 2
Molecule: H10-tagged zinc-binding domain of human CLPX (domain or fragment)

- Kd [2]: 1800 nM
B1: untagged PDIP38 (natural protein)
chain: SSRNRPEGKVLETVGVFEVPKQNGKYETGQLFLHSIFGYRGVVLFPWQARLYDRDVASAAPEKAENPAGHGSKEVKGKTHTYYQVLIDARDCPHISQRSQTEAVTFLANHDDSRALYAIPGLDYVSHEDILPYTSTDQVPIQHELFERFLLYDQTKAPPFVARETLRAWQEKNHPWLELSDVHRETTENIRVTVIPFYMGMREAQNSHVYWWRYCIRLENLDSDVVQLRERHWRIFSLSGTLETVRGRGVVGREPVLSKEQPAFQYSSHVSLQASSGHMWGTFRFERPDGSHFDVRIPPFSLESNKDEKTPPSGLHW

Second part, the molecule before the results:

B2: His10-tagged recombinant PDIP38 (H10PDIP38) (natural protein)
chain: B1 chain
- stoichiometry N (PDIP38 per ZBD2) [1]: 1

B3: GST-PDIP38 fusion protein (natural protein)
chain: B1 chain
- Kd [3]: ~1800 nM
